{"source": "patent US8974774", "biological_target": "carcinoembryonic antigen (human) (UniProt P06731)", "sequence (P06731 35-702)": "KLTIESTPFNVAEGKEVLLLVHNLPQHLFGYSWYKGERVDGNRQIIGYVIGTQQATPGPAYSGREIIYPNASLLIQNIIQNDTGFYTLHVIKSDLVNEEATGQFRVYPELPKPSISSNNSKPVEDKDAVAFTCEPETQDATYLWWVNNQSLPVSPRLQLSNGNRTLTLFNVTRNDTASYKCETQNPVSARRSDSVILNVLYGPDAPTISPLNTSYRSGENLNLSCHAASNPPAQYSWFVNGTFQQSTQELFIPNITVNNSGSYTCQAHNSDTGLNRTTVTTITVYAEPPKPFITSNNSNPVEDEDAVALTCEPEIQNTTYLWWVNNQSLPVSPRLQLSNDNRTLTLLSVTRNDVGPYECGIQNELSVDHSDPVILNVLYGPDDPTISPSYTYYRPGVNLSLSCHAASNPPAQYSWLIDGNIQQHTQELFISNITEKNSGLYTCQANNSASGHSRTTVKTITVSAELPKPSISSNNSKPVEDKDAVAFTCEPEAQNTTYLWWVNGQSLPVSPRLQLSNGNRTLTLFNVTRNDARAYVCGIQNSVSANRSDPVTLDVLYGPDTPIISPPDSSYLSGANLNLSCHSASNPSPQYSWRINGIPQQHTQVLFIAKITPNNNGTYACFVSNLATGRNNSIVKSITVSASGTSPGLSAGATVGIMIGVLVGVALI", "data": [{"substance": "Monoclonal antibody to carcinoembryonic antigen (CEA; clone CD66e, US Biological) covalently conjugated to anionic polyaspartate (3K MW)", "values": [{"measurement": "percent of colon carcinoma cells positive for fluorescein signal", "value": 87.6, "unit": "%"}]}]}
